# Data taken from patent publication US20260062490A1 (Innovent, published 2026).
# Target: T1, Human Her2 (Human, UniProt P04626 23-652)
# T1 construct: also called antigen Her2
# Assay: BLI (ForteBio), antibody loaded on ProA sensors, antigen fusion protein in solution, 30 degrees
# Protocol: Biolayer Interferometry (BLI) technology was used to test the equilibration dissociation constant (KD) of bispecific antibody binding to the respective antigens in the present disclosure. The BLI method affinity test was performed using an existing method (Estep, P et al., High throughput solution Based measurement of antibody-antigen affinity and epitope binning. MAbs, 2013.5 (2): Pages 270-8).
# Half an hour before the start of the experiment, a suitable number of ProA (ForteBio, 18-5010) sensors based on the sample size were soaked in SD buffer (PBS 1×, BSA 0.1%, Tween-20 0.05%). 100 μL of SD buffer and antigen fusion protein were taken and added to a 96-well black polystyrene half-area microplate (Greiner, 675076), respectively. The sensor position was selected based on the sample position and layout. The instrument setting parameters are as follows: Run steps: Baseline, Loading ˜1 nm, Baseline, Association and Dissociation; the run time of each step depended on the sample binding and dissociation rate, and the rotational speed was 400 rpm and temperature was 30 degrees. ForteBio analysis software was used to analysis the KD value.
Binder,Kd [nM],koff [s⁻¹],kon [M⁻¹ s⁻¹]
"Her2/Hel bispecific antibody, Combination 1 in Table 3 / Table 9 / Table 10 (anti-Her2: Q39K, F126C, C220S / Q38D, Q124C, C214S; anti-Hel: Q39D / Q38K) (bispecific antibody, human IgG1, kappa, L234A L235A) heavy 1: not shown light 1: not shown heavy 2: EVRLLESGGGLVQPGGSLRLSCAASGFTFSNYAMGWVRDAPGKGLEWVSAISGSGGSTYYADSVKGRFTTSRDDSKNALYLQMNSLRAEDTAVYYCARGGPGWYAADVWGQGTTVTVSSASTKGPSVFPLAPSSKSTSGGTAALGCLVKDYFPEPVTVSWNSGALTSGVHTFPAVLQSSGLYSLSSVVTVPSSSLGTQTYICNVNHKPSNTKVDKKVEPKSCDKTHTCPPCPAPEAAGGPSVFLFPPKPKDTLMISRTPEVTCVVVDVSHEDPEVKFNWYVDGVEVHNAKTKPREEQYNSTYRVVSVLTVLHQDWLNGKEYKCKVSNKALPAPIEKTISKAKGQPREPQVCTLPPSRDELTKNQVSLSCAVKGFYPSDIAVEWESNGQPENNYKTTPPVLDSDGSFFLVSKLTVDKSRWQQGNVFSCSVMHEALHNHYTQKSLSLSPGK light 2: DIQMTQSPSSLSASVGDRVTITCRASQSISSYLNWYQKKPGKAPKLLIYAASSLQSGVPSRFSGSGSGTDFTLTISSLQPEDFATYYCQQADLPAFAFGGGTKVEIKRTVAAPSVFIFPPSDEQLKSGTASVVCLLNNFYPREAKVQWKVDNALQSGNSQESVTEQDSKDSTYSLSSTLTLSKADYEKHKVYACEVTHQGLSSPVTKSFNRGEC",0.805,0.0002,249000
"Her2/Hel bispecific antibody, Combination 4 in Table 3 / Table 9 / Table 10 (anti-Her2: Y91K, F126C, C220S / A43D, Q124C, C214S; anti-Hel: Y91D / A43K) (bispecific antibody, human IgG1, kappa, L234A L235A) heavy 1: not shown light 1: not shown heavy 2: EVRLLESGGGLVQPGGSLRLSCAASGFTFSNYAMGWVRQAPGKGLEWVSAISGSGGSTYYADSVKGRFTTSRDDSKNALYLQMNSLRAEDTAVYDCARGGPGWYAADVWGQGTTVTVSSASTKGPSVFPLAPSSKSTSGGTAALGCLVKDYFPEPVTVSWNSGALTSGVHTFPAVLQSSGLYSLSSVVTVPSSSLGTQTYICNVNHKPSNTKVDKKVEPKSCDKTHTCPPCPAPEAAGGPSVFLFPPKPKDTLMISRTPEVTCVVVDVSHEDPEVKFNWYVDGVEVHNAKTKPREEQYNSTYRVVSVLTVLHQDWLNGKEYKCKVSNKALPAPIEKTISKAKGQPREPQVCTLPPSRDELTKNQVSLSCAVKGFYPSDIAVEWESNGQPENNYKTTPPVLDSDGSFFLVSKLTVDKSRWQQGNVFSCSVMHEALHNHYTQKSLSLSPGK light 2: DIQMTQSPSSLSASVGDRVTITCRASQSISSYLNWYQQKPGKKPKLLIYAASSLQSGVPSRFSGSGSGTDFTLTISSLQPEDFATYYCQQADLPAFAFGGGTKVEIKRTVAAPSVFIFPPSDEQLKSGTASVVCLLNNFYPREAKVQWKVDNALQSGNSQESVTEQDSKDSTYSLSSTLTLSKADYEKHKVYACEVTHQGLSSPVTKSFNRGEC",0.764,0.0002,262000
"Her2/Hel bispecific antibody, Combination 3 in Table 3 / Table 9 / Table 10 (anti-Her2: L45K, F126C, C220S / P44D, Q124C, C214S; anti-Hel: L45D / P44K) (bispecific antibody, human IgG1, kappa, L234A L235A) heavy 1: not shown light 1: not shown heavy 2: EVRLLESGGGLVQPGGSLRLSCAASGFTFSNYAMGWVRQAPGKGDEWVSAISGSGGSTYYADSVKGRFTTSRDDSKNALYLQMNSLRAEDTAVYYCARGGPGWYAADVWGQGTTVTVSSASTKGPSVFPLAPSSKSTSGGTAALGCLVKDYFPEPVTVSWNSGALTSGVHTFPAVLQSSGLYSLSSVVTVPSSSLGTQTYICNVNHKPSNTKVDKKVEPKSCDKTHTCPPCPAPEAAGGPSVFLFPPKPKDTLMISRTPEVTCVVVDVSHEDPEVKFNWYVDGVEVHNAKTKPREEQYNSTYRVVSVLTVLHQDWLNGKEYKCKVSNKALPAPIEKTISKAKGQPREPQVCTLPPSRDELTKNQVSLSCAVKGFYPSDIAVEWESNGQPENNYKTTPPVLDSDGSFFLVSKLTVDKSRWQQGNVFSCSVMHEALHNHYTQKSLSLSPGK light 2: DIQMTQSPSSLSASVGDRVTITCRASQSISSYLNWYQQKPGKAKKLLIYAASSLQSGVPSRFSGSGSGTDFTLTISSLQPEDFATYYCQQADLPAFAFGGGTKVEIKRTVAAPSVFIFPPSDEQLKSGTASVVCLLNNFYPREAKVQWKVDNALQSGNSQESVTEQDSKDSTYSLSSTLTLSKADYEKHKVYACEVTHQGLSSPVTKSFNRGEC",0.758,0.0002,264000

# The next lines start with the values.
Kd [nM],koff [s⁻¹],kon [M⁻¹ s⁻¹],Binder
0.72,0.0002,278000,"Her2/Hel bispecific antibody, Combination 5 in Table 3 / Table 9 / Table 10 (anti-Her2: Y91K, F126C, C220S / P44D, Q124C, C214S; anti-Hel: Y91D / P44K) (bispecific antibody, human IgG1, kappa, L234A L235A) heavy 1: not shown light 1: not shown heavy 2: EVRLLESGGGLVQPGGSLRLSCAASGFTFSNYAMGWVRQAPGKGLEWVSAISGSGGSTYYADSVKGRFTTSRDDSKNALYLQMNSLRAEDTAVYDCARGGPGWYAADVWGQGTTVTVSSASTKGPSVFPLAPSSKSTSGGTAALGCLVKDYFPEPVTVSWNSGALTSGVHTFPAVLQSSGLYSLSSVVTVPSSSLGTQTYICNVNHKPSNTKVDKKVEPKSCDKTHTCPPCPAPEAAGGPSVFLFPPKPKDTLMISRTPEVTCVVVDVSHEDPEVKFNWYVDGVEVHNAKTKPREEQYNSTYRVVSVLTVLHQDWLNGKEYKCKVSNKALPAPIEKTISKAKGQPREPQVCTLPPSRDELTKNQVSLSCAVKGFYPSDIAVEWESNGQPENNYKTTPPVLDSDGSFFLVSKLTVDKSRWQQGNVFSCSVMHEALHNHYTQKSLSLSPGK light 2: DIQMTQSPSSLSASVGDRVTITCRASQSISSYLNWYQQKPGKAKKLLIYAASSLQSGVPSRFSGSGSGTDFTLTISSLQPEDFATYYCQQADLPAFAFGGGTKVEIKRTVAAPSVFIFPPSDEQLKSGTASVVCLLNNFYPREAKVQWKVDNALQSGNSQESVTEQDSKDSTYSLSSTLTLSKADYEKHKVYACEVTHQGLSSPVTKSFNRGEC"
0.748,0.0002,268000,"Her2/Hel bispecific antibody, Combination 2 in Table 3 / Table 9 / Table 10 (anti-Her2: L45K, F126C, C220S / Y87D, Q124C, C214S; anti-Hel: L45D / Y87K) (bispecific antibody) heavy 1: not shown light 1: not shown heavy 2: EVRLLESGGGLVQPGGSLRLSCAASGFTFSNYAMGWVRQAPGKGDEWVSAISGSGGSTYYADSVKGRFTTSRDDSKNALYLQMNSLRAEDTAVYYCARGGPGWYAADVWGQGTTVTVSSASTKGPSVFPLAPSSKSTSGGTAALGCLVKDYFPEPVTVSWNSGALTSGVHTFPAVLQSSGLYSLSSVVTVPSSSLGTQTYICNVNHKPSNTKVDKKVEPKSCDKTHTCPPCPAPEAAGGPSVFLFPPKPKDTLMISRTPEVTCVVVDVSHEDPEVKFNWYVDGVEVHNAKTKPREEQYNSTYRVVSVLTVLHQDWLNGKEYKCKVSNKALPAPIEKTISKAKGQPREPQVCTLPPSRDELTKNQVSLSCAVKGFYPSDIAVEWESNGQPENNYKTTPPVLDSDGSFFLVSKLTVDKSRWQQGNVFSCSVMHEALHNHYTQKSLSLSPGK light 2: DIQMTQSPSSLSASVGDRVTITCRASQSISSYLNWYQQKPGKAPKLLIYAASSLQSGVPSRFSGSGSGTDFTLTISSLQPEDFATYKCQQADLPAFAFGGGTKVEIKRTVAAPSVFIFPPSDEQLKSGTASVVCLLNNFYPREAKVQWKVDNALQSGNSQESVTEQDSKDSTYSLSSTLTLSKADYEKHKVYACEVTHQGLSSPVTKSFNRGEC"
